This is an account of results in PMC8888484, “Ubr1-induced selective endophagy/autophagy protects against the endosomal and Ca^2+-induced proteostasis disease stress” (Cellular and Molecular Life Sciences: CMLS, 2022).

In assay [1] the target is mutants (MLC1 mutants of Fig. 3A). Put plainly: co-IP; cell surface immunoprecipitation (cs-IP): anti-GlialCAM Ab bound to live HeLa cells 45 min on ice, unbound Ab washed off, lysis (0.4% NP-40 in co-IP assays), MLC1/GlialCAM complex precipitated, Western blot; signals normalised to precipitated MLC1; for Fig. 7G cells with siUbr1 or siNT and Flag-Ubr1-wt or -CI. For orientation: A western blot detects proteins with antibodies after separation by electrophoresis.

Assay [2] addresses T1, HA-MLC1-S280L-Bir* (human (by the printed GeneID 23209; the …, UniProt Q15049 1-377, S280L).
T1 construct: MLC1, GeneID 23209, disease-causing variant S280L, as a chimera with Bir*; also called SL-b
T1 sequence (looked up): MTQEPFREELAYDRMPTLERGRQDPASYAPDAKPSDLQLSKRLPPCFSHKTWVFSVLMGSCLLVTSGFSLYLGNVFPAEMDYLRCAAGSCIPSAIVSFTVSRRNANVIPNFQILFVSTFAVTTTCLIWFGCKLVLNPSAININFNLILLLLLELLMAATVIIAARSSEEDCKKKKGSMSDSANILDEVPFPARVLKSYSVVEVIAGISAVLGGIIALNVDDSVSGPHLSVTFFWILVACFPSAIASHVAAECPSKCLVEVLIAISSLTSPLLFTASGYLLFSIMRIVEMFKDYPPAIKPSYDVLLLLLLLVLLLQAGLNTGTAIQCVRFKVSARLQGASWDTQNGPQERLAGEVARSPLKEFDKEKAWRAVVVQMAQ
As to the kind of experiment: proximity labelling; proximity biotinylation with MLC1-Bir* chimera as bait, 50 µM biotin, cs-IP with anti-GlialCAM Ab, biotinylated proteins recovered on streptavidin/neutravidin beads, Western blot for Ubr1; normalised for the PM amount of MLC1. The note with it: partners not purified.

Turning to “CHIP (C-terminus of Hsc70-interacting protein) (from UniProt Q9UNE7 1-303)”, in assay [1], the fold association against MLC1-wt fell in the range of 2 to 5 fold.

B1: endogenous Ubr1 (enzyme, UniProt Q8IWV7 1-1749, looked up)
chain: MADEEAGGTERMEISAELPQTPQRLASWWDQQVDFYTAFLHHLAQLVPEIYFAEMDPDLEKQEESVQMSIFTPLEWYLFGEDPDICLEKLKHSGAFQLCGRVFKSGETTYSCRDCAIDPTCVLCMDCFQDSVHKNHRYKMHTSTGGGFCDCGDTEAWKTGPFCVNHEPGRAGTIKENSRCPLNEEVIVQARKIFPSVIKYVVEMTIWEEEKELPPELQIREKNERYYCVLFNDEHHSYDHVIYSLQRALDCELAEAQLHTTAIDKEGRRAVKAGAYAACQEAKEDIKSHSENVSQHPLHVEVLHSEIMAHQKFALRLGSWMNKIMSYSSDFRQIFCQACLREEPDSENPCLISRLMLWDAKLYKGARKILHELIFSSFFMEMEYKKLFAMEFVKYYKQLQKEYISDDHDRSISITALSVQMFTVPTLARHLIEEQNVISVITETLLEVLPEYLDRNNKFNFQGYSQDKLGRVYAVICDLKYILISKPTIWTERLRMQFLEGFRSFLKILTCMQGMEEIRRQVGQHIEVDPDWEAAIAIQMQLKNILLMFQEWCACDEELLLVAYKECHKAVMRCSTSFISSSKTVVQSCGHSLETKSYRVSEDLVSIHLPLSRTLAGLHVRLSRLGAVSRLHEFVSFEDFQVEVLVEYPLRCLVLVAQVVAEMWRRNGLSLISQVFYYQDVKCREEMYDKDIIMLQIGASLMDPNKFLLLVLQRYELAEAFNKTISTKDQDLIKQYNTLIEEMLQVLIYIVGERYVPGVGNVTKEEVTMREIIHLLCIEPMPHSAIAKNLPENENNETGLENVINKVATFKKPGVSGHGVYELKDESLKDFNMYFYHYSKTQHSKAEHMQKKRRKQENKDEALPPPPPPEFCPAFSKVINLLNCDIMMYILRTVFERAIDTDSNLWTEGMLQMAFHILALGLLEEKQQLQKAPEEEVTFDFYHKASRLGSSAMNIQMLLEKLKGIPQLEGQKDMITWILQMFDTVKRLREKSCLIVATTSGSESIKNDEITHDKEKAERKRKAEAARLHRQKIMAQMSALQKNFIETHKLMYDNTSEMPGKEDSIMEEESTPAVSDYSRIALGPKRGPSVTEKEVLTCILCQEEQEVKIENNAMVLSACVQKSTALTQHRGKPIELSGEALDPLFMDPDLAYGTYTGSCGHVMHAVCWQKYFEAVQLSSQQRIHVDLFDLESGEYLCPLCKSLCNTVIPIIPLQPQKINSENADALAQLLTLARWIQTVLARISGYNIRHAKGENPIPIFFNQGMGDSTLEFHSILSFGVESSIKYSNSIKEMVILFATTIYRIGLKVPPDERDPRVPMLTWSTCAFTIQAIENLLGDEGKPLFGALQNRQHNGLKALMQFAVAQRITCPQVLIQKHLVRLLSVVLPNIKSEDTPCLLSIDLFHVLVGAVLAFPSLYWDDPVDLQPSSVSSSYNHLYLFHLITMAHMLQILLTVDTGLPLAQVQEDSEEAHSASSFFAEISQYTSGSIGCDIPGWYLWVSLKNGITPYLRCAALFFHYLLGVTPPEELHTNSAEGEYSALCSYLSLPTNLFLLFQEYWDTVRPLLQRWCADPALLNCLKQKNTVVRYPRKRNSLIELPDDYSCLLNQASHFRCPRSADDERKHPVLCLFCGAILCSQNICCQEIVNGEEVGACIFHALHCGAGVCIFLKIRECRVVLVEGKARGCAYPAPYLDEYGETDPGLKRGNPLHLSRERYRKLHLVWQQHCIIEEIARSQETNQMLFGFNWQLL
modifications: biotinylated in cells by MLC1-Bir*
notes: Ubr1, endogenous, detected with anti-Ubr1 (Abcam)
Turning to B1, in assay [2], the “fold biotinylation against MLC1-wt” value is about 8 fold.
